Experimental data taken from patent US11890364B2, “Composition for prevention or treatment of hair loss” (GOOD T CELLS, INC., priority 2017, dated 2024).
Ends that are not written are not given here.

Molecular target: T1, caspase-1 (Homo sapiens, UniProt P29466)
T1 sequence (P29466 120-297 limits assumed): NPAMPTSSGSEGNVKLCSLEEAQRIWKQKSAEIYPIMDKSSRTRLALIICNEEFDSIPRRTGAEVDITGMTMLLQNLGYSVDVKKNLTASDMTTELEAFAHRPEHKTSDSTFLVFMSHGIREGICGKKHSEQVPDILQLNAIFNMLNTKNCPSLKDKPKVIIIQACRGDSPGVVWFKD
T1 sequence (P29466 317-404 limits assumed): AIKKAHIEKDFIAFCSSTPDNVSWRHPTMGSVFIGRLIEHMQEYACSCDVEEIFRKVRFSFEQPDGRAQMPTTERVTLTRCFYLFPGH
Assay: Caspase-1 treatment followed by HPLC analysis
Type: biochemical
Conditions: treated with caspase-1, HPLC analysis, FIG. 2
Protocol: Compound E1 obtained in Example 1, Compound E7 obtained in Example 7, and finasteride were prepared. Then, these compounds were treated with caspase-1, and analyzed with high performance liquid chromatography (HPLC). The results are illustrated in FIGS. 2 and 3.

“Compound E7: finasteride linked via caspase-1 cleavage site (YVAD) and linkers to CTP+cysteine peptide (SEQ ID NO: 6) (YGRRARRRRRRC; also: finasteride linked via caspase-1 cleavage site (YVAD) and linkers, attachment site not given here)” was tested, and the “cleavage of the compound on treatment with caspase-1 (HPLC)” value was “cleaved into two moieties, that is, finasteride and the protein transduction domain”.
